Assay results taken from US8821943B2, “Methods and compositions for targeted delivery of therapeutic agents” (Board of Regents of the University of Nebraska, priority 2006, dated 2014).

Experiments:
[1] = Particle size, polydispersity and zeta-potential by dynamic light scattering; assay type: physicochemical
Experimental: Nanoparticle carrier particles were formed by the methods of the preceding Example, and characterized as follows. The particle size and the zeta-potential were measured using Zeta Plus zeta-potential analyzer (Brookhaven Instruments Ltd., New York, N.Y.), which employs the dynamic light scattering technique for particle size measurement. The particle size and zeta-potential measurements were made after 1:1000 dilution of particle stock in filtered deionized water. Further, the particles were visualized using a transmission electron microscope (TEM). The carbon-coated grids were floated on a suspension droplet of plain or functionalized nanoparticles on a flexible plastic film (Parafilm, Pechiney Plastic Packaging, Neenah, Wis.) to allow the adsorption of nanoparticles onto the grid. After drying the particles, uranyl acetate was added as a negative stain to the carbon grid and allowed to react with the particles. This procedure makes the particles electron dense, allowing their visualization using an electron microscope. The particles were photographed using EM410 Phillips electron microscope (Eindhoven, The Netherlands) set at 60 kV and a magnification of 153000×.
Characterization of particles: The particle size and the zeta-potential were measured using ZetaPlus® zeta-potential analyzer, Brookhaven Instruments Ltd. (New York, N.Y.), which employs the dynamic light scattering technique for particle size measurement. The particle size and zeta-potential measurements were carried out after 1:1000 dilution of particle stock in filtered deionized water before lyophilization in filtered deionized water. The effective diameter of conjugated nanoparticles was higher than that of unconjugated nanoparticles.
Particle Size Analysis: Particle size and zeta-potential of the nanoparticles before and after conjugation following lyophilization were measured in double distilled water (100 μl of particle/1 ml of water) using dynamic light scattering (DLS). After lyophilization the plasmid loaded particles were weighed (1 mg) into glass Kimble tubes. To each tube, 1 ml of double distilled water was added and vortexed at high speed (Vortex Genie, Scientific Industries, Bohemia, N.Y.) till the particles were resuspended. The particle size and zeta potential was determined using dynamic light scattering after dilution (1:10 in double distilled water) (Brookhaven Instruments Corp., Holtsville, N.Y.). Nanoparticle size after lyophilization was 210.4±0.68 nm and zeta potential was −32.85±0.87 mV. Nanoparticle size and zeta potential was measured after conjugation with deslorelin and transferrin. Similarly, the unconjugated nanoparticles were also treated under the same conditions as with the conjugated nanoparticles (the conjugation protocol as mentioned above).
(§1) Transport studies were conducted in bovine nasal tissue. Bovine nasal tissue was obtained from freshly slaughtered cattle, and different regions (MTA, MTP, ITP) were prepared as described in Example 13. Nanoparticles coupled to deslorelin or transferring via aldehyde sulfate moieties were prepared as described in Example 3. The nanoparticle size was measured using a Zeta Plus Analyzer (Brookhaven Instruments Limited, UK). Particle size was analyzed before and after ligand conjugation in deionized filtered water.

[2] = test system: excised bovine nasal tissue (MTA, MTP, ITP regions); experiment: Nanoparticle transport and uptake across excised bovine nasal tissue (Ussing chambers); assay type: in vitro ADME; details: for Remaining in Donor / Total / Washes: mass balance; for Tissue Uptake / Transport: mass balance after 4 hr transport; for decrease in transport on co-treatment with free ligand / decrease in uptake on co-treatment with free ligand: m:s
Experimental: as §1
The tissues were exposed to 5 ml of assay buffer with either peptide conjugated or plain nanoparticles on the donor side (mucosal or serosal surface). Assay buffer (5 ml) without particles was exposed to the receiver side (serosal or mucosal surface). The buffers used were pre-equilibrated to 37° C. or 4° C. The donor nanoparticle concentration was 20 or 100 μg/ml. […] Donor samples were collected at the beginning (replenished with particle stock suspension) and at the end of the experiment. The samples were collected in polypropylene tubes, capped, and stored at 4° C. until analysis. The aperture/tissue area exposed to the bathing fluids in this set up was 1.78 cm^2.
Nanoparticle Uptake: At the end of 4 hr in the above transport studies, the tissues exposed (1.78 cm^2) to the nanoparticle suspension were cut and washed thrice using 1 ml of assay buffer at pH 5. After the washes, the tissues were weighed and placed in 1 ml of 2% Triton-X 100™ and homogenized until a tissue suspension was formed using the Tissue Tearor™. The tissue debris was separated by centrifugation at 3000 rpm (Marathon Micro A, Fisher Scientific, Pittsburgh, Pa.) for 10 min. The supernatant was collected to analyze the amount of nanoparticles taken up by the tissue. Standard curves were prepared by homogenizing serial dilution of the stock solution with approximately 100-150 mg of nasal tissue. The homogenates were then centrifuged and the supernatant was analyzed.
Nanoparticle Transport and Uptake: Competition with Free Ligand: Similar to the transport and uptake studies mentioned above, the competition study was carried out using the modified Ussing chambers. The tissues were exposed to 20 μg/ml of nanoparticles conjugated with deslorelin or transferrin in the presence of 10 times (200 μg/ml) of plain deslorelin or transferrin in the donor chamber. Receiver samples were obtained at various intervals up to 4 hr and replaced with pre-warmed assay buffer. At the end of 4 hr the tissue region exposed to the nanoparticle preparation was cut and washed in assay buffer at pH 5. The tissues were then homogenized and centrifuged. The supernatants were analyzed to determine nanoparticle uptake.
Nanoparticle Quantification: The samples obtained from the transport studies, washes and supernatants of tissue homogenates were analyzed for nanoparticle content using a spectrofluorometer (Cary Eclipse, Varian Inc.). The excitation wavelength of 505 nm and an emission wavelength of 515 nm were used. Bandwidths of 3 or 5 nm were used for the sample analysis after dilution as required. The procedure used for extraction of the nanoparticles was performed as mentioned in the methods section under nanoparticle uptake. […] Briefly, similar amounts of tissues (weighed to match weight of tissues obtained from the transport experiment) were spiked with serially diluted stock nanoparticle suspensions (0.3 μg/ml-100 μg/ml) prepared in 2% Triton-X 100™. The tissues were homogenized, centrifuged and the supernatant obtained was used for standards. Standard curves were also prepared in assay buffer and acid wash buffer.

[3] = 20 μg/ml nanoparticles + 200 μg/ml free ligand, ITP
[4] = 20 μg/ml nanoparticles + 200 μg/ml free ligand, MTP

In the case of “Transferrin-AS: transferrin-aldehyde sulphate-conjugated polystyrene nanoparticles”, the Zeta potential ([1]; Table 2, polystyrene nanoparticles) is reported as −20.62 ± 0.82 mV, the “Measured Diameter” value ([1]; Table 2, polystyrene nanoparticles, 1:1000 dilution in filtered deionized water, includes hydrodynamic layer, n = 3) is reported as 67.5 ± 1.0 nm and the Zeta potential ([1]; Table 6) is reported as −20.62 ± 0.82 mV. The Effective diameter ([1]; Table 6, 1:1000 dilution in filtered deionized water) was 67.5 ± 1.0 nm, the “transport in the s:m direction greater than in the m:s direction” value (“transport … in the m:s direction” for short) ([2]; ITP) was 10% and the “Remaining in Donor” value ([2]; ITP) was 94.51 ± 1.10%. For the same substance, the Total ([2]; ITP) was 98.62 ± 1.13%, the Washes ([2]; ITP) was 0.75 ± 0.10% and the “Tissue Uptake” value ([2]; ITP) was 3.98 ± 0.10%. For the same substance, the Transport ([2]; ITP) was 1.97 ± 0.05%, the “transport … in the m:s direction” value ([2]; MTA) was 16% and the “uptake, times higher than plain nanoparticles” value ([2]; MTA) was 3.6 times. The “percent transport as well as uptake, times higher than deslorelin-nanoparticles” value ([2]; MTA, MTP and ITP regions) was 1.3-1.4 times, the “Remaining in Donor” value ([2]; MTA) was 93.06 ± 0.99% and the Total ([2]; MTA) was 98.77 ± 0.95%. For the same substance, the Washes ([2]; MTA) was 0.50 ± 0.13%, the “Tissue Uptake” value ([2]; MTA) was 2.13 ± 0.13% and the Transport ([2]; MTA) was 1.13 ± 0.07%. For the same substance, the “transport … in the m:s direction” value ([2]; MTP) was 17%, the “uptake, times higher than plain nanoparticles” value ([2]; MTP) was 2.9 times and the “Remaining in Donor” value ([2]; MTP) was 92.14 ± 2.20%. The Total ([2]; MTP) was 98.99 ± 0.52%, the Washes ([2]; MTP) was 0.60 ± 0.11% and the “Tissue Uptake” value ([2]; MTP) was 2.99 ± 0.14%. For the same substance, the Transport ([2]; MTP) was 1.52 ± 0.11%, the “decrease in uptake at 4° C. compared to 37° C.” value (“decrease in uptake … to 37° C.” for short) ([2]; m:s direction, ITP) was 77% and the “percent transport, times higher than plain nanoparticles” value ([2]; m:s direction, ITP) was about 1.8 times. The “decrease in uptake … to 37° C.” value ([2]; m:s direction, MTA) was 58%, the “percent transport, times higher than plain nanoparticles” value ([2]; m:s direction, MTA) was “approximately 3.3 times” and the “decrease in uptake … to 37° C.” value ([2]; m:s direction, MTP) was 70%. For the same substance, the “percent transport, times higher than plain nanoparticles” value ([2]; m:s direction, MTP) was about 2.1 times, the “decrease in transport on co-treatment with free ligand” value [2, 3] was 25% and the “decrease in uptake on co-treatment with free ligand” value [2, 3] was 44%. The “decrease in uptake on co-treatment with free ligand” value ([2]; 20 μg/ml nanoparticles + 200 μg/ml free ligand, MTA) was 43%, the “decrease in transport on co-treatment with free ligand” value [2, 4] was 33% and the “decrease in uptake on co-treatment with free ligand” value [2, 4] was 45%. The “decrease in transport on co-treatment with free ligand” value ([2]; 20 μg/ml nanoparticles + 200 μg/ml plain deslorelin or transferrin, MTA) was 22%, the “decrease in uptake … to 37° C.” value ([2]; s:m direction, ITP) was 80% and the “decrease in uptake … to 37° C.” value ([2]; s:m direction, MTA) was 65%. The “decrease in uptake … to 37° C.” value ([2]; s:m direction, MTP) was 75%.
